Results as given in article PMC10615762.

Target: Fusion protein of Nipah virus (F-clamp) (Nipah virus)
Assay: SEC

Substance: Fusion protein of Nipah virus (F-clamp)
- stoichiometry N: 3
